The values that follow come from patent US8389676B2, “Biotinylation tag peptides” (Pacific Biosciences of California, Inc., priority 2010, dated 2013).

No end group written: not given here.

This assay has as its target streptavidin (Streptomyces avidinii, UniProt P22629). Briefly: Degree of biotinylation assessed by HPLC as fraction bound to streptavidin. The class given is binding. The settings on record: fusion protein biotinylation peptide-His(10)-phi29 pol, biotinylated in vivo in E. coli co-expressing biotin ligase, Ni-NTA purified, 2-fold molar excess of streptavidin. The method, then:
Each of the DNA sequences encoding the affinity peptides was added individually to the 5′ terminus of a His(10)-tagged phi29 DNA polymerase gene such that the polypeptide expressed from each construct was a fusion protein consisting of: N-terminus-biotinylation peptide-His(10)-phi29 pol-C-terminus. Each gene was expressed in E. coli cells co-expressing biotin ligase in culture medium containing biotin. These conditions are known to effect the in-vivo biotinylation of biotinylation peptides. Proteins were purified using Ni-NTA columns and then mixed with a 2-fold molar excess of streptavidin under conditions known to effect binding of streptavidin to biotinylated fusion proteins.
The degree of biotinylation of each protein was assessed by HPLC. […] None of the biotinylation peptides affected the polymerase activity when tested in a branching fraction assay performed, for example, as described in U.S. patent application No. 2010/0112645.

streptavidin, sequence (P22629 25-183, species assumed): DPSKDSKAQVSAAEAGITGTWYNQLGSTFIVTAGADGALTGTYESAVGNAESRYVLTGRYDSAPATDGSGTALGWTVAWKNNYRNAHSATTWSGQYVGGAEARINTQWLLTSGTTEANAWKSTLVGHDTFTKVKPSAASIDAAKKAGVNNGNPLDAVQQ

B1: Leu Asn Asp Leu Phe His Ala Gln Lys Ile Glu Trp His (protein)
chain: LNDLFHAQKIEWHHHHHHHHHHHMKHMPRKMYSCDFETTTKVEDCRVWAYGYMNIEDHSEYKIGNSLDEFMAWVLKVQADLYFHNLKFDGAFIINWLERNGFKWSADGLPNTYNTIISRMGQWYMIDICLGYKGKRKIHTVIYDSLKKLPFPVKKIAKDFKLTVLKGDIDYHKERPVGYKITPEEYAYIKNDIQIIAEALLIQFKQGLDRMTAGSDSLKGFKDIITTKKFKKVFPTLSLGLDKEVRYAYRGGFTWLNDRFKEKEIGEGMVFDVNSLYPAQMYSRLLPYGEPIVFEGKYVWDEDYPLHIQHIRCEFELKEGYIPTIQIKRSRFYKGNEYLKSSGGEIADLWLSNVDLELMKEHYDLYNVEYISGLKFKATTGLFKDFIDKWTYIKTTSEGAIKQLAKLMLNSLYGKFASNPDVTGKVPYLKENGALGFRLGEEETKDPVYTPMGVFITAWARYTTITAAQACYDRIIYCDTDSIHLTGTEIPDVIKDIVDPKKLGYWAHESTFKRAKYLRQKTYIQDIYMKEVDGKLVEGSPDDYTDIKFSVKCAGMTDKIKKEVTFENFKVGFSRKMKPKPVQVPGGVVLVDDTFTIK
notes: biotinylation peptide tested as N-terminal fusion: biotinylation peptide-His(10)-phi29 pol
In the case of B1, the “degree of biotinylation: bound to streptavidin” value was “approximately 50%”.

B2: Leu Asn Asp Ile Val Glu Ala Gln Lys Ile Glu Trp His (protein)
chain: LNDIVEAQKIEWHHHHHHHHHHHMKHMPRKMYSCDFETTTKVEDCRVWAYGYMNIEDHSEYKIGNSLDEFMAWVLKVQADLYFHNLKFDGAFIINWLERNGFKWSADGLPNTYNTIISRMGQWYMIDICLGYKGKRKIHTVIYDSLKKLPFPVKKIAKDFKLTVLKGDIDYHKERPVGYKITPEEYAYIKNDIQIIAEALLIQFKQGLDRMTAGSDSLKGFKDIITTKKFKKVFPTLSLGLDKEVRYAYRGGFTWLNDRFKEKEIGEGMVFDVNSLYPAQMYSRLLPYGEPIVFEGKYVWDEDYPLHIQHIRCEFELKEGYIPTIQIKRSRFYKGNEYLKSSGGEIADLWLSNVDLELMKEHYDLYNVEYISGLKFKATTGLFKDFIDKWTYIKTTSEGAIKQLAKLMLNSLYGKFASNPDVTGKVPYLKENGALGFRLGEEETKDPVYTPMGVFITAWARYTTITAAQACYDRIIYCDTDSIHLTGTEIPDVIKDIVDPKKLGYWAHESTFKRAKYLRQKTYIQDIYMKEVDGKLVEGSPDDYTDIKFSVKCAGMTDKIKKEVTFENFKVGFSRKMKPKPVQVPGGVVLVDDTFTIK
notes: as for B1
Turning to B2, the “degree of biotinylation: bound to streptavidin” value was “approximately 50%”.
